Measurements: paper PMC2978023 (Journal of immunology (Baltimore, Md. : 1950), 2008)
Ends that are not written are not given here.

Columns and labels:
Experiment in all cases: ELISA
[1] = biological target: recombinant purified β2 integrin subunit (UniProt P05107 23-769)
[2] = biological target: recombinant purified integrin αMβ2 (UniProt P11215 17-1152; P05107 23-769)
[3] = biological target: recombinant purified αM integrin subunit (UniProt P11215 17-1152)

| Binder | Kd [1] [nM] | Kd [2] [nM] | Kd [3] [nM] |
| --- | --- | --- | --- |
| GWTVFQKRLDGSV (also: biotin label, position not given here) [peptide P1, Fgγ(190)GWTVFQKRLDGSV(202)] | > 100000 |  |  |
| KIIPFNRLTIG (also: biotin label, position not given here) [peptide P2-C, Fgγ(385)KIIPFNRLTIG(395)] | 50 | 12 | 100 |
